According to the DeepSol protein solubility set:

Experiment: soluble on expression in E. coli; label from the status in PepcDB or PDB records
With “MSLIDRFGRPLEDLRITLTHACNFECFFCHMEGEEGDNYLLSKEDILLVAKVARKFGINSVKLTGGEPTLRRDLVEIVRGLKQLGYEDVSMTTNGFLLKDLAHKLKLAGLDRINISLHAVSRDTFKKITGVDAFDRVIEGIKSAIDVGLVPVKLNFVVNRRNREEAFKFIELSQNLGVNEIHLIELHPVGLGKLAFKEHDDLREIEEYIEKISIKKLIRKKHFRPRYVLPSGLIVEVVKPYANPIFCAGCNRIRLSVDGKLKTCLYREDNVIDVLDILKGEYSEDVKEELLGRAFMIAIAIREPNFKYKIEGHHHHHH” the “soluble on expression in E. coli” value was “soluble”.
In the case of “MSLIERVRTDLYRIPLPTRLTDSTHGAMMDFELITVRIEDSDGATGLGYTYTVNHGGAAVATMVDKDLRGCLLGADAEQIEKIWQSMWWRLHYAGRGGHATSAISAVDIALWDLKGIRARTPLWKLFGGYDPVVPVYAGGIDLELPVADLKTQADRFLAGGFRAIKMKVGRPDLKEDVDRVSALREHLGDSFPLMVDANMKWTVDGAIRAARALAPFDLHWIEEPTIPDDLVGNARIVRESGHTIAGGENLHTLYDFHNAVRAGSLTLPEPDVSNIGGYTTFRKVAALAEANNMLLTSHGVHDLTVHALASVPHRTYMEAHGFGLHAYMAEPMAVTDGCVSAPDRPGHGVVLDFERLGRLAVGEGHHHHHH”, the “soluble on expression in E. coli” value is reported as “soluble”.
In the case of “MSLIFILGIFYYLTQPLKSNSVVFIPQGSISQIITYLKQNKYQMSNIDKYILFFLGHPQSGWINIGTKDLNRAEFLHKLTIAKAALQTITLIPGETSVIFLEQAAKQLGLDKDILLKEFQAQAPYDEGVFLPETYKIPKGITENLLIQMLLNHAEISNKKTSEKIFGDYNPKKWHQYIIIASVIQKEAANDNEMPIVASVIYNRLKKGMKLQMDGTLNYGIYSHVKVTPQRIRQDNSFYNTYKFTGLPKEAVCNVSLAAIRAAIFPLKTDYLYFVRDKNTGVHIFSTNIDDHNKAINLQKGKEGHHHHHH”, the “soluble on expression in E. coli” value is reported as “not soluble”.
For “MSLIGETINKLKVIKESSKRDKSRCKMYECLCECGEVIIVRSSTLRQGKIKSCGCESNKIHSELMRERNTTHGLSSNPMYQRWLGMKQRCYDVNAINYKNYGGRGIEICEEWKNDFKKFYDYMGDPPNENYQIDRINNDGNYEPGNVKWSTRSENSTNIRKKSTHNIYKKSNNVYNIQIVRKNKVKYFSAKSLEEAIELRDNVINKYNETGEGHHHHHH”, the “soluble on expression in E. coli” value was “not soluble”.
In the case of “MSLIISELRHEHALRDLLRAAGMSRSTWYYNMNALKQGDRYAGLKENIRKIYHYHKGRYGYRRITLALRKQGLRINHKTVQRLMAELSLRSVIRAKKYRAWKGRTGEAAPNILSRNFGASKANEKWVTDVTEFPVQGKKLYLSSVLDLFNREVIAYSLSERPVMEMVNTMLDGAFPKLRPGDAPLLHSDQGWHYRMRSYQERLKAHGMTQSMSRKGNCLDNAVMENFFGTLKSECFYLREFRSVSALRKAVEDYIHYYNNERISLKLKGLSPVEYRTQALRAAEGHHHHHH”, the “soluble on expression in E. coli” value is reported as “not soluble”.
With “MSLILYDYFRSTACYRVRIALNLKKIAYEKIEVHLVNNGGEQHSLQYHQINPQELVPSLDINGQILSQSMAIIDYLEEIHPEMPLLPKDPFMKATLKSMALIVACDMHPLNNLRVLNRLKEQFNANEEQVLEWYHHWLKTGFDAFEEKLGALERDKPVCFGSEVGLADVCLIPQVYNAHRFHFDMASYPIINEINEYCLTLPAFHDAAPEAISSEGHHHHHH” the “soluble on expression in E. coli” value was “soluble”.
With “MSLINLVEKEWQEHQKIVQASEILKGQIAKVGELLCECLKKGGKILICGNGGSAADAQHFAAELSGRYKKERKALAGIALTTDTSALSAIGNDYGFEFVFSRQVEALGNEKDVLIGISTSGKSPNVLEALKKAKELNMLCLGLSGKGGGMMNKLCDHNLVVPSDDTARIQEMHILIIHTLCQIIDESF” the “soluble on expression in E. coli” value was “soluble”.
In the case of “MSLIPATLLLVEDDPDQRIIMQRKLQQQGYKVICAENGEEAVDLYNNNTIDLVLMDAQLPGMDGFEACFLITHTETGSRCPVMMITSLENSESVDRAFQVGAEEYVPKPIHWKVLMQRIRRQIKSRRVHQEGHHHHHH”, the “soluble on expression in E. coli” value is reported as “soluble”.
For “MSLIPIDYLRASRKGREVRPRYLNDDKIASEVINMAKSAKTLGEFRNAVELISSDKKLVRGLAHVLEQLIEIEKIDSKLVTRTRLEVFKAASALGYPLTEEERERVFQTVAARLKMGVNEVKALFLKAYEENRLIVKAPDIQPKQLVEMYNLALIQALLFKSLYVKALLPNAPALLKGLIRAVKGLGLMYIVEINGGQLEFRFDGPVSALRQTERYGTRLAKLVPYITSAEKWEIEAQVKLGERIYVFKESGRTAPPLPKTPPHAEQFDSLVEQEFYKQVSKICHVEREPEALVVDGRVYIPDFKIGDLYVEIVGFWTPDYLKRKYEKITKVGKPLLVLVSEELAMATWKQLMPNVVVFKDRPRLSDVFKYIKPYCVNHREGHHHHHH”, the “soluble on expression in E. coli” value was “not soluble”.
